The values below come from US20250019435A1 (ALBERT EINSTEIN COLLEGE OF MEDICINE, published 2025).

Assay [1] concerns the target T1, PVR expressed on transduced cells (PVR-YFP) (UniProt P15151 21-417).
T1 construct: whole, on cells; On NIH 3T3 or Raji cells; also called PVR/3T3; PVR-YFP/3T3; not shown: YFP ('PVR-YFP ... fusion protein')
T1 sequence (looked up): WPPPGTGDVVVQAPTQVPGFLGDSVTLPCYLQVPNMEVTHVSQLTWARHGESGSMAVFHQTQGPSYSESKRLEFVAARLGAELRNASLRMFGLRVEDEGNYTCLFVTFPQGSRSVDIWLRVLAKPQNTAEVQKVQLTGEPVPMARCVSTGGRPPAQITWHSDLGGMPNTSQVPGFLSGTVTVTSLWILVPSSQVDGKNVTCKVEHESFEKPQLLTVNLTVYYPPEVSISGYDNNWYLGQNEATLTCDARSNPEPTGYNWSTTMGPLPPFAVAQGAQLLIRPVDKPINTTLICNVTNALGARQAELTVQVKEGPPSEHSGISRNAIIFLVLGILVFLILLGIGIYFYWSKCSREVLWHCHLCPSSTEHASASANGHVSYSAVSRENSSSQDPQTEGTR
Description: flow cytometry, PVR/3T3 cells preincubated with DNAM-1-His, then KIR2DL5-Ig. In general terms: A flow cytometer gives signals particle by particle.

The target of assay [2] is T1, PVR expressed on transduced cells …. Briefly: confocal imaging of conjugates of transduced primary NK cells with PVR-YFP/Raji cells. The procedure:
(§1) The KIR2DL5⁻ primary NK cells were transduced with WT KIR2DL5 or the indicated mutants, and then examined for protein expression with F8B30 (open) or mIgG1 (shaded). NC, negative control. Data are representative of 2 independent experiments. (B and C) Transduced primary NK cells were treated with (+) or without (−) pervanadate (VO₄) for 5 minutes. Cell lysates were immunoprecipitated with anti-KIR2DL5 antibodies. Phospho-tyrosine (4G10), SHP-1, SHP-2, and total KIR2DL5 were detected by immunoblots (B). Quantification of p-Tyr, SHP-1, and SHP-2 association with WT or mutant KIR2DL5 in VO₄-treated NK cells (C). WCL, whole-cell lysates. (D) Representative imaging of cell conjugates acquired upon the indicated transduced primary NK and PVR/Raji cell contact followed by staining with anti-KIR2DL5 mAb and DAPI. Scale bars: […]. (E) Lysis of scramble control or PVR^KO A427 (top) and Jurkat (bottom) by WT or mutant KIR2DL5-transduced primary NK cells at the indicated E/T ratios. Data are mean for duplicate measurements and representative of 3 independent experiments with 3 different donors. In A, and B, data are representative of 3 independent experiments. *P<0.05, **P<0.01, ***P<0.001, ****P<0.0001, by 1-way ANOVA (C), or paired Student's t test (D).
NK-Raji conjugation assay. […] Cell mixtures were then loaded onto poly-L-lysine-precoated slides and fixed with 4% formaldehyde at RT for 15 minutes. After blocking with 5% normal goat serum at RT for 1 hour, cells were stained with 20 µg/mL anti-KIR2DL5 antibodies (a mixture of 8 homemade clones) at 4° C. overnight and then with goat anti-mIgG (H+L) Alexa Flour 647 (Invitrogen) at RT for 2 hours. The cells were permeabilized by 0.1% Triton X-100 at RT for 15 minutes and stained with Alexa Flour Plus 405 Phalloidin (Life Technologies) for 1 hour at RT. The slides were then mounted by Gold Antifade Mountant without DAPI (Life Technologies). The mean pixel intensity of synapse and non-synapse was respectively measured and statistically analyzed. Images were acquired by Leica SP8 confocal microscope and processed by ImageJ (NIH).

A further assay concerns the target SHP-1 (human, UniProt P29350 1-595). Briefly: co-immunoprecipitation with anti-KIR2DL5 from transduced primary NK cells with or without pervanadate, immunoblot. As to the method: as §1, with “FIG. 12A-12E: KIR2DL5 ITIM and ITSM mediated NK cell inhibition and suppressed downstream signaling. (A) Tyrosine (Y) in ITIM and ITSM of KIR2DL5 was mutated to phenylalanine (F). The” for “The”
(§2) Coimmunoprecipitation and immunoblotting. NK92 cells or primary NK cells pretreated with or without 1 mM pervanadate (New England BioLabs) were lysed in Pierce immunoprecipitation lysis buffer supplemented with protease and phosphatase inhibitor cocktail (Thermo Fisher Scientific). Proteins from whole-cell lysis were further incubated with anti-KIR2DL5 antibodies and Dynabeads protein G (Thermo Fisher Scientific) for further immunoprecipitation. […]
In general terms: Immunoblotting shows a protein as a band on a membrane.

The target in a further assay is T2, SHP-2 (human, UniProt Q06124 2-593).
T2 sequence (looked up): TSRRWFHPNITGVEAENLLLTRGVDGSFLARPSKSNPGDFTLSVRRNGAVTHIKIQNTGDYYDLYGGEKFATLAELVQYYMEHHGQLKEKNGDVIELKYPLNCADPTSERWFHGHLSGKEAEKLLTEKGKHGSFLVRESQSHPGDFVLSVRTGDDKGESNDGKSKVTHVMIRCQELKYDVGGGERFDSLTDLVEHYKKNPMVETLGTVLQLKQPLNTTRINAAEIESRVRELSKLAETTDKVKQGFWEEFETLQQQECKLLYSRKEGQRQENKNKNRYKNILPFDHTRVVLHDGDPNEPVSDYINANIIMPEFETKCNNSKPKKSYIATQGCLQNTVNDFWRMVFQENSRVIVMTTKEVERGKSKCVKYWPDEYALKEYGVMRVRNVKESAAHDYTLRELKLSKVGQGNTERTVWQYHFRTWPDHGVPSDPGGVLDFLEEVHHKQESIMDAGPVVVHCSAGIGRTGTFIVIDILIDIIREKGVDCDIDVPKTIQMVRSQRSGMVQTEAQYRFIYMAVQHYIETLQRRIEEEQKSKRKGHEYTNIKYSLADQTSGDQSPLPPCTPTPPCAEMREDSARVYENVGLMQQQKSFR
Described as above. The procedure: as §1, with “FIG. 12A-12E: KIR2DL5 ITIM and ITSM mediated NK cell inhibition and suppressed downstream signaling. (A) Tyrosine (Y) in ITIM and ITSM of KIR2DL5 was mutated to phenylalanine (F). The” for “The”
as §2

Sequence of SHP-1 (P29350 whole entry): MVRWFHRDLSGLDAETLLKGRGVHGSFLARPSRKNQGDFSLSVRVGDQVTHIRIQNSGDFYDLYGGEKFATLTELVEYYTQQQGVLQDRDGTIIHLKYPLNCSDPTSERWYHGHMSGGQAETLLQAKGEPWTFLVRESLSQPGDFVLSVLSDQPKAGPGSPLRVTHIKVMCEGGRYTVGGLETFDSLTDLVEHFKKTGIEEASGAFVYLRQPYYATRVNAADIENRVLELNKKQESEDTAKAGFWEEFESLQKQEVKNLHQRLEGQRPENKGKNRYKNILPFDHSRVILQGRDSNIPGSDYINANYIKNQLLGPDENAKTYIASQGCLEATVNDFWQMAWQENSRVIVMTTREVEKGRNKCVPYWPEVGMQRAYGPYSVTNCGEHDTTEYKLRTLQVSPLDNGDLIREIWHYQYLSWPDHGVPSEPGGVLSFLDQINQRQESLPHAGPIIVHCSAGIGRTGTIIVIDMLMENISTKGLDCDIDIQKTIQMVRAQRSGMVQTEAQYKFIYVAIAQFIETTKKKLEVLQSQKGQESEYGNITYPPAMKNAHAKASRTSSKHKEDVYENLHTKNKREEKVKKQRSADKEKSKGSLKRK

B1: recombinant human DNAM-1-His tag protein (receptor, UniProt Q15762 19-247, looked up)
chain: EEVLWHTSVPFAENMSLECVYPSMGILTQVEWFKIGTQQDSIAIFSPTHGMVIRKPYAERVYFLNSTMASNNMTLFFRNASEDDVGYYSCSLYTYPQGTWQKVIQVVQSDSFEAAVPSNSHIVSEPGKNVTLTCQPQMTWPVQAVRWEKIQPRQIDLLTYCNLVHGRNFTSKFPRQIVSNCSHGRWSVIVIPDVTVSDSGLYRCYLQASAGENETFVMRLTVAEGKTDN
notes: Bought; also called CD226-His; not shown: His tag
For the molecule B1, the binding result in assay [1] is “binds”.

B2: Y298F/Y328F (receptor)
receptor chain: HEGGQDKPLLSAWPSAVVPRGGHVTLLCRSRLGFTIFSLYKEDGVPVPELYNKIFWKSILMGPVTPAHAGTYRCRGSHPRSPIEWSAPSNPLVIVVTGLFGKPSLSAQPGPTVRTGENVTLSCSSRSSFDMYHLSREGRAHEPRLPAVPSVNGTFQADFPLGPATHGGTYTCFGSLHDSPYEWSDPSDPLLVSVTGNSSSSSSSPTEPSSKTGIRRHLHILIGTSVAIILFIILFFFLLHCCCSNKKNAAVMDQEPAGDRTVNREDSDDQDPQEVTFAQLDHCVFTQTKITSPSQRPKTPPTDTTMFMELPNAKPRSLSPAHKHHSQALRGSSRETTALSQNRVASSHVPAAGI
notes: also called KIR2DL5 Y298F/Y328F (ITIM and ITSM mutant) on transduced primary NK cells
Turning to B2, the figures for the binding result (in assay [2]; with SHP-1; with SHP-2) were “binds”, “no binding” and “no binding”, respectively.
